Numbering of substitutions follows the chain as printed. Values belong to the binder of their own block, whether it stands above or below them.
Key:
cynomolgus NKG2D-Fc = molecular target: T1, cynomolgus NKG2D-Fc (cynomolgus monkey, UniProt P61252 73-216); test: ELISA on plate-adsorbed recombinant cynomolgus NKG2D-Fc, anti-human kappa-HRP, OD 450 nm
T1 construct: extracellular domain
T1 sequence (looked up): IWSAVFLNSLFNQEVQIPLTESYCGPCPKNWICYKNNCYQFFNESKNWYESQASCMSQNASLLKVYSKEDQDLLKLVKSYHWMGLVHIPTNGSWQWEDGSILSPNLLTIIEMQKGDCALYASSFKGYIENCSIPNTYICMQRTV
Text: (§1) The nucleic acid sequences of human, mouse or cynomolgus NKG2D ectodomains were fused with nucleic acid sequences encoding human IgG1 Fc domains and introduced into mammalian cells to be expressed. After purification, NKG2D-Fc fusion proteins were adsorbed to wells of microplates. After blocking the wells with bovine serum albumin to prevent non-specific binding, NKG2D-binding domains were titrated and added to the wells pre-adsorbed with NKG2D-Fc fusion proteins. Primary antibody binding was detected using a secondary antibody which was conjugated to horseradish peroxidase and specifically recognizes a human kappa light chain to avoid Fc cross-reactivity. 3,3′,5,5′-Tetramethylbenzidine (TMB), a substrate for horseradish peroxidase, was added to the wells to visualize the binding signal, whose absorbance was measured at 450 nm and corrected at […]. An NKG2D-binding domain clone, an isotype control or a positive control (comprising heavy chain and light chain variable domains selected from the group consisting of: SEQ ID NOs: 526-529, or anti-mouse NKG2D clones MI-6 and CX-5 available at eBioscience) was added to each well.

human NKG2D-Fc [1] = molecular target: T2, human NKG2D-Fc (human, UniProt P26718 73-216); test: ELISA on plate-adsorbed recombinant human NKG2D-Fc, anti-human kappa-HRP, OD 450 nm
T2 construct: extracellular domain; also called recombinant human NKG2D-Fc; NKG2D-Fc-biotin
T2 sequence (looked up): T1 sequence (looked up) with N43D, I133T
Text: as §1

mouse NKG2D-Fc = molecular target: T3, mouse NKG2D-Fc (mouse, UniProt O54709 90-232); test: ELISA on plate-adsorbed recombinant mouse NKG2D-Fc, anti-human kappa-HRP, OD 450 nm
T3 construct: extracellular domain; also called Mouse NKG2D-Fc-biotin
T3 sequence (looked up): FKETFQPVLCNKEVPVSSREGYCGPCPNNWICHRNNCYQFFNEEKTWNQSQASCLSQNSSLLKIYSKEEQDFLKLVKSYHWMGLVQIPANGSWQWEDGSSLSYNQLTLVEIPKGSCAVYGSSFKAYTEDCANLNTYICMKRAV
Text: as §1

human NKG2D-Fc [2] = molecular target: T2, human NKG2D-Fc; test: competition ELISA on plate-adsorbed human NKG2D-Fc; blocked ligand ULBP-6-His-biotin
Procedure: Recombinant human NKG2D-Fc proteins were adsorbed to wells of a microplate, and the wells were blocked with bovine serum albumin to reduce non-specific binding. A saturating concentration of ULBP-6-His-biotin was added to the wells, followed by addition of the NKG2D-binding domain clones. After a 2-hour incubation, wells were washed and ULBP-6-His-biotin that remained bound to the NKG2D-Fc coated wells was detected by streptavidin-conjugated to horseradish peroxidase and TMB substrate. Absorbance was measured at 450 nm and corrected at […]. After subtracting background, specific binding of NKG2D-binding domains to the NKG2D-Fc proteins was calculated from the percentage of ULBP-6-His-biotin that was blocked from binding to the NKG2D-Fc proteins in wells.

[3] = molecular target: T4, soluble mouse Fc-human NKG2D dimer (human, UniProt P26718 78-216, limits assumed); test: SPR, mAb captured by anti-hFc, 37C
T4 construct: also called NKG2D-mFc; human NKG2D fused to a mouse Fc
T4 sequence (looked up): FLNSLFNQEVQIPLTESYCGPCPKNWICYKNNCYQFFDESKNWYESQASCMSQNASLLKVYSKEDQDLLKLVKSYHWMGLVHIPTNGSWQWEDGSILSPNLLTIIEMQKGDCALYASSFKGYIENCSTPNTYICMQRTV
Procedure: Kinetics and affinity of various NKG2D-binding domains were assessed by surface plasmon resonance using Biacore 8K instrument (GE Healthcare). Anti-human Fe antibody was immobilized on a CM5 chip using standard amine coupling chemistry. Human monoclonal antibodies containing various NKG2D-binding domains were captured on the anti-human Fc chip at a density of approximately 100 RU. […] Surfaces were regenerated between cycles by quick injection of 10 mM glycine, pH 1.8. To obtain kinetic rate constants, double-referenced data were fit to a 1:1 interaction model using Biacore 8K Evaluation software (GE Healthcare). The equilibrium binding constant KD was determined by the ratio of dissociation constant kd and association constant kₐ (kd/kₐ).

human CEACAM5 on cells [4] = molecular target: T5, human CEACAM5 on cells (human, UniProt P06731 35-685); test: flow cytometry, MKN-45 cells
T5 construct: tumour cell lines with endogenous CEACAM5, or B16F10 engineered to express hCEACAM5; also called CEACAM5 on MKN-45, HPAF-II, SK-CO-1, LoVo, BxPC-3, Kato-III, LS-174T, ZR-75-30; hCEACAM5-B16F10
T5 sequence: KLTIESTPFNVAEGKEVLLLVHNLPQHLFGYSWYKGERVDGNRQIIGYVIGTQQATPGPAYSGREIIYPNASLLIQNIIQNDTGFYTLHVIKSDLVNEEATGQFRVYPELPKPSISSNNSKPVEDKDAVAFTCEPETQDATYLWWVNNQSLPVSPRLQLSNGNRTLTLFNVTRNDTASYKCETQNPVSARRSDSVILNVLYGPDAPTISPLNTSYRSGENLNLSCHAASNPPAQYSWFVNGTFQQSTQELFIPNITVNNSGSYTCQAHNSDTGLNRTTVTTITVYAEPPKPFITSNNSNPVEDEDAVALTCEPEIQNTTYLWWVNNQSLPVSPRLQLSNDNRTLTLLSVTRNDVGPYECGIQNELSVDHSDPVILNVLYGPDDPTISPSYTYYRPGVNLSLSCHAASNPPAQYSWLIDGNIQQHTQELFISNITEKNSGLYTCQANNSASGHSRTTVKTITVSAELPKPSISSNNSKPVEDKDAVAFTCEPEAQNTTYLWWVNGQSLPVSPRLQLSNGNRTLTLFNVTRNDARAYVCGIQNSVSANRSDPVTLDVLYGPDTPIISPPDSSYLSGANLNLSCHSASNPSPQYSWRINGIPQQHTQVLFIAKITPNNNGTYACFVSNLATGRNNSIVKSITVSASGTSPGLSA

human CEACAM5 on cells [5] = molecular target: T5, human CEACAM5 on cells; test: flow cytometry, SK-CO-1 cells
human CEACAM5 on cells [6] = molecular target: T5, human CEACAM5 on cells; test: flow cytometry, BxPC-3 cells
human CEACAM5 on cells [7] = molecular target: T5, human CEACAM5 on cells; test: flow cytometry, LoVo cells
human CEACAM5 on cells [8] = molecular target: T5, human CEACAM5 on cells; test: flow cytometry, Kato-III cells

B1: ADI-27705 (antibody, V domains shown)
VH: QVQLQQWGAGLLKPSETLSLTCAVYGGSFSGYYWSWIRQPPGKGLEWIGEIDHSGSTNYNPSLKSRVTISVDTSKNQFSLKLSSVTAADTAVYYCARARGPWSFDPWGQGTLVTVSS
VL: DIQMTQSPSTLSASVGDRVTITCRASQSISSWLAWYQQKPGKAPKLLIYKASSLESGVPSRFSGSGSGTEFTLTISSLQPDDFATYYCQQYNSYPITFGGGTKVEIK
notes: named as a single clone only on the drawing sheets
binding result (cynomolgus NKG2D-Fc): binds | EC50 (read off the curve) (human NKG2D-Fc [1]): ~0.6 nM | binding result (mouse NKG2D-Fc): binds

B2: ADI-27724 (antibody, V domains shown)
VH: B1 VH
VL: not shown
notes: as for B1
EC50 (read off the curve) (cynomolgus NKG2D-Fc): ~8 nM | EC50 (read off the curve) (human NKG2D-Fc [1]): ~10 nM | EC50 (read off the curve) (mouse NKG2D-Fc): ~8 nM

B3: ADI-27741 (antibody, V domains shown)
VH: B1 VH
VL: DIQMTQSPSTLSASVGDRVTITCRASQSIGSWLAWYQQKPGKAPKLLIYKASSLESGVPSRFSGSGSGTEFTLTISSLQPDDFATYYCQQSNSYYTFGGGTKVEIK
notes: as for B1
binding result (cynomolgus NKG2D-Fc): binds | binding result (human NKG2D-Fc [1]): binds | binding result (mouse NKG2D-Fc): binds

B4: ADI-27740 (antibody, V domains shown)
VH: B1 VH
VL: B3 VL with S91Y, N92H, Y94F
notes: named as a single clone only on the drawing sheets; also called A40
EC50 (read off the curve) (cynomolgus NKG2D-Fc): ~0.3 nM | EC50 (read off the curve) (human NKG2D-Fc [1]): ~0.3 nM | IC50 (read off the curve) (human NKG2D-Fc [2]): ~6 nM | EC50 (read off the curve) (mouse NKG2D-Fc): ~0.2 nM

B8: ADI-27744 (A44) (antibody, V domains shown)
VH: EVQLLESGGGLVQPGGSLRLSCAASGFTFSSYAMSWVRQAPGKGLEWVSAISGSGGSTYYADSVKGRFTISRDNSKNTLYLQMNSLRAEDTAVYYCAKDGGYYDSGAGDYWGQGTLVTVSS
VL: DIQMTQSPSSVSASVGDRVTITCRASQGIDSWLAWYQQKPGKAPKLLIYAASSLQSGVPSRFSGSGSGTDFTLTISSLQPEDFATYYCQQGVSYPRTFGGGTKVEIK
Kd [3]: 10.1 nM | koff [3]: 0.00299 s⁻¹ | kon [3]: 295000 M⁻¹ s⁻¹

B9: ADI-27749 (A49) (antibody, V domains shown)
VH: EVQLVESGGGLVKPGGSLRLSCAASGFTFSSYSMNWVRQAPGKGLEWVSSISSSSSYIYYADSVKGRFTISRDNAKNSLYLQMNSLRAEDTAVYYCARGAPMGAAAGWFDPWGQGTLVTVSS
VL: B8 VL with D30S, Y94F
Kd [3]: 12.4 nM | koff [3]: 0.00489 s⁻¹ | kon [3]: 395000 M⁻¹ s⁻¹

B10: AB0755 (antibody, V domains shown)
VH: QVQLVQSGAEVKKPGASVKVSCKASGYTFTAYTIHWVRQAPGQGLEWMGYINPSSGYTEYNQKFKDRTTLTADTSIPTAYMELSRLRSDDTAVYYCTREGGLLWFDYWGQGTLVTVSS
VL: DIVMTQSPDSLAVSLGERATINCKSSHSLLYGNFQNNYLAWYQQKPGQPPKLLIYWASTRESGVPDRFSGSGSGTDFTLTISSLQAEDVAVYYCQQYYSYPYTFGGGTKLEIK
notes: the scFv entries carry the stabilising cysteines, which the mAb may lack; also called mAb corresponding to AB0264
EC50 (human CEACAM5 on cells [4]): 4.69 nM | Max FOB (human CEACAM5 on cells [4]): 23 fold over background | EC50 (human CEACAM5 on cells [5]): 5.84 nM | Max FOB (human CEACAM5 on cells [5]): 14 fold over background | EC50 (human CEACAM5 on cells [6]): 3.37 nM | Max FOB (human CEACAM5 on cells [6]): 5 fold over background | EC50 (human CEACAM5 on cells [7]): 2.71 nM | Max FOB (human CEACAM5 on cells [7]): 7 fold over background | EC50 (human CEACAM5 on cells [8]): 1.16 nM | Max FOB (human CEACAM5 on cells [8]): 3 fold over background

Further lines, results first:

binding result (cynomolgus NKG2D-Fc): binds | binding result (human NKG2D-Fc [1]): binds | binding result (mouse NKG2D-Fc): binds
B5: ADI-28226 (antibody, V domains shown)
VH: B1 VH
VL: DIQMTQSPSTLSASVGDRVTITCRASQSISSWLAWYQQKPGKAPKLLIYKASSLESGVPSRFSGSGSGTEFTLTISSLQPDDFATYYCQQYGSFPITFGGGTKVEIK
notes: named as a single clone only on the drawing sheets; also called C26

Kd [3]: 50.7 nM | koff [3]: 0.0225 s⁻¹ | kon [3]: 443000 M⁻¹ s⁻¹
B6: ADI-29379 (E79) (antibody, V domains shown)
VH: QVQLVQSGAEVKKPGASVKVSCKASGYTFTSYYMHWVRQAPGQGLEWMGIINPSGGSTSYAQKFQGRVTMTRDTSTSTVYMELSSLRSEDTAVYYCARGAPNYGDTTHDYYYMDVWGKGTTVTVSS
VL: EIVMTQSPATLSVSPGERATLSCRASQSVSSNLAWYQQKPGQAPRLLIYGASTRATGIPARFSGSGSGTEFTLTISSLQSEDFAVYYCQQYDDWPFTFGGGTKVEIK

Kd [3]: 58.5 nM | koff [3]: 0.0487 s⁻¹ | kon [3]: 832000 M⁻¹ s⁻¹
B7: ADI-29378 (E78) (antibody, V domains shown)
VH: QVQLVQSGAEVKKPGASVKVSCKASGYTFTSYYMHWVRQAPGQGLEWMGIINPSGGSTSYAQKFQGRVTMTRDTSTSTVYMELSSLRSEDTAVYYCAREGAGFAYGMDYYYMDVWGKGTTVTVSS
VL: B6 VL with M4L, V13L, N32Y, G50D, T53N, E70D, Q79E, S80P, Y91S, D93N
